Laboratory results: patent EP1117419B1 (The University Of Southern California, dated 2010)

Legend:
[1] = target: binding sites on unactivated human platelets; assay: Scatchard analysis of CN binding to unactivated human platelets
[2] = target: canine platelet (GP)IIb/IIIa on canine platelets (platelet rich plasma) (canine, UniProt Q9TUN8 32-1036; A0A8I3PMU9 158-919)
[3] = target: human platelet membrane glycoprotein (GP)IIb/IIIa on human platelets (platelet rich plasma) (human, UniProt P08514 32-1039; P05106 27-788)

B1: contortrostatin (CN), native homodimer purified from Agkistrodon contortrix contortrix venom (ligand)
chain: DAPANPCCDAATCKLTTGSQCADGLCCDQCKFMKEGTVCRRARGDDLDDYCNGISAGCPRNPFHA
[1]
  Kd: 37 nM
[2]
  IC50: 0.24 µg/mL
[3]
  IC50: 0.4 µg/mL
